Experimental data published in US7259247.

Target: CD28 (UniProt P10747)
Assay: cell-based or functional assay

Chain of UniProt P10747 (P10747 19-220 limits assumed): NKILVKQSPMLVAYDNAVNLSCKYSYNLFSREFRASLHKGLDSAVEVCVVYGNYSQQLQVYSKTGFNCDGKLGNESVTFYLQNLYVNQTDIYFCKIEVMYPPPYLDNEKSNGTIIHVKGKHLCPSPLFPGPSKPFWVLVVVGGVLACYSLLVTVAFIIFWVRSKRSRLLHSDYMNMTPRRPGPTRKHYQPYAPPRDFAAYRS

Q: With anti-CD28 antibody 9.3 as the substance, how does the expression of other activation antigens on CD4+ T cells, suboptimal OKT3, plate-bound antibody costimulation read?
A: The expression of other activation antigens on CD4+ T cells, suboptimal OKT3, plate-bound antibody costimulation was 4 to 100 fold.
